Residues, ends and D or L forms follow the SMILES beside them. *: point of attachment. Cbz = O=C(OCc1ccccc1)*; CH2F = FC*
Experiments:
caspase-1 = experiment: IL-1β secretion assay in COS-7L cells (ELISA for mouse IL-1β); type: cell-based; conditions: for IL-1β production (caspase-1 activation): co-expression with caspase-1 and CARD-5 at low protein levels, FIG. 14B
Description: Experiments were next carried out using an IL-1β secretion assay to determine whether CARD-5 and PYRIN-8 induce activation of caspase-1. Active caspase-1 cleaves pro-IL-1β, resulting in the secretion of bioactive IL-1β from cells. In the IL-1β secretion assays, COS-7L cells (GIBCO) were co-transfected in 12-well (22-mm) plates using LipofectAMINE […] reagent (Invitrogen) with plasmids encoding mouse pro-IL-1β and indicated expression plasmids (total DNA=1.04 μg). Supernatants were collected 24 hours after transfection and subjected to ELISA for mouse IL-1β according to the manufacturer's protocol (R&D Systems).
The caspase-1 inhibitor Z-WEHD-FMK was added to cells following transfection at a final concentration of 100 μM.

CARD-5 = molecular target: T1, CARD-5 (Homo sapiens, UniProt Q9ULZ3); experiment: Cellular co-localization (immunostaining) in 293T embryonic kidney cells; type: cell-based; conditions: 293T cells; FLAG-tagged PYRIN-8 construct co-expressed with HA-tagged CARD-5
T1 construct: expressed in transfected cells; host or cells: 293T
T1 sequence (Q9ULZ3 whole entry): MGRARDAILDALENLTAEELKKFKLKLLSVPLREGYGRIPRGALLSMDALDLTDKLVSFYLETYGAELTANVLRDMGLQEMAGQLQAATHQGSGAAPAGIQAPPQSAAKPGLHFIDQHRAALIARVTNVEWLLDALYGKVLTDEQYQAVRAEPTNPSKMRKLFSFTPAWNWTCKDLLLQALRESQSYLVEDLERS
Description: Cellular co-localization studies were carried out to determine whether PYRIN-8 interacts with CARD-5 (also known as ASC) when the two proteins were overexpressed in 293T embryonic kidney cells. Plasmids expressing either full-length PYRIN-8 (PYRIN-8FL, residues 1-1061 of SEQ ID NO:18) or a PYRIN-8 truncation mutant lacking the PYRIN domain (PYRIN-8ΔPYRIN, residues 89-1061 of SEQ ID NO:18) with a C-terminal FLAG epitope were constructed using pCI (Promega). FLAG-tagged PYRIN-8 and HA-tagged CARD-5 were expressed in cells and detected using a mixture of anti-HA and anti-FLAG antibodies.
In immunostaining assays to detect cellular localization, 293T cells were transfected in poly-D-lysine-coated glass chamber slides (BioCoat, Becton-Dickinson Labware) with plasmids expressing HA-tagged CARD-5 and either FLAG-tagged PYRIN-8 or PYRIN-8ΔPYRIN using SuperFect transfection reagent (Qiagen). Cells were fixed 24 hours after transfection in 4% paraformaldehyde, permeabilized and blocked in a buffer containing 0.3% Triton X-100, and incubated with the following primary and secondary antibodies: rabbit anti-HA polyclonal Y-11 (Santa Cruz Biotechnology), mouse anti-FLAG monoclonal antibody M2 (Sigma), Alexa-350 goat anti-rabbit IgG (Molecular Probes), and Alexa-598 goat anti-mouse IgG (Molecular Probes). […]

| Molecule | effect on IL-1β secretion induced by PYRIN-8 and CARD-5 (caspase-1; inhibitor added following transfection at a final concentration of 100 μM, FIG. 14C) | IL-1β production (caspase-1 activation) (caspase-1) | co-localization with CARD-5 punctate structures (CARD-5) |
| --- | --- | --- | --- |
| COC(=O)CC[C@H](NC(=O)[C@H](Cc1c[nH]c2ccccc12)NC(=O)OCc1ccccc1)C(=O)N[C@@H](Cc1cnc[nH]1)C(=O)N[C@@H](CC(=O)OC)C(=O)CF [Z-WEHD, Z-WEHD-FMK, reference compound] (Cbz-WE(OMe)HD(OMe)-CH2F) | blocked the ability of PYRIN-8 and CARD-5 to induce the secretion of IL-1β | – | – |
| PYRIN-8ΔPYRIN: PYRIN-8 truncation mutant lacking the PYRIN domain, residues 89-1061 of SEQ ID NO:18 (protein, listed as Homo sapiens) GQREDLVRDTPPGGPSSLGNQSTCLLEVSLVTPRKDPQETYRDYVRRKFRLMEDRNARLGECVNLSHRYTRLLLVKEHSNPMQVQQQLLDTGRGHARTVGHQASPIKIETLFEPDEERPEPPRTVVMQGAAGIGKSMLAHKVMLDWADGKLFQGRFDYLFYINCREMNQSATECSMQDLIFSCWPEPSAPLQELIRVPERLLFIIDGFDELKPSFHDPQGPWCLCWEEKRPTELLLNSLIRKKLLPELSLLITTRPTALEKLHRLLEHPRHVEILGFSEAERKEYFYKYFHNAEQAGQVFNYVRDNEPLFTMCFVPLVCWVVCTCLQQQLEGGGLLRQTSRTTTAVYMLYLLSLMQPKPGAPRLQPPPNQRGLCSLAADGLWNQKILFEEQDLRKHGLDGEDVSAFLNMNIFQKDINCERYYSFIHLSFQEFFAAMYYILDEGEGGAGPDQDVTRLLTEYAFSERSFLALTSRFLFGLLNEETRSHLEKSLCWKVSPHIKMDLLQWIQSKAQSDGSTLQQGSLEFFSCLYEIQEEEFIQQALSHFQVIVVSNIASKMEHMVSSFCLKRCRSAQVLHLYGATYSADGEDRARCSAGAHTLLVQLPERTVLLDAYSEHLAAALCTNPNLIELSLYRNALGSRGVKLLCQGLRHPNCKLQNLRLKRCRISSSACEDLSAALIANKNLTRMDLSGNGVGFPGMMLLCEGLRHPQCRLQMIQLRKCQLESGACQEMASVLGTNPHLVELDLTGNALEDLGLRLLCQGLRHPVCRLRTLWLKICRLTAAACDELASTLSVNQSLRELDLSLNELGDLGVLLLCEGLRHPTCKLQTLRLGICRLGSAACEGLSVVLQANHNLRELDLSFNDLGDWGLWLLAEGLQHPACRLQKLWLDSCGLTAKACENLYFTLGINQTLTDLYLTNNALGDTGVRLLCKRLSHPGCKLRVLWLFGMDLNKMTHSRLAALRVTKPYLDIGC | – | eliminated the synergistic production of IL-1β | failed to associate with the CARD-5 punctate structures |
| PYRIN-8: full-length human PYRIN-8 protein, residues 1-1061 of SEQ ID NO:18, expressed from plasmid (protein, listed as Homo sapiens) MLRTAGRDGLCRLSTYLEELEAVELKKFKLYLGTATELGEGKIPWGSMEKAGPLEMAQLLITHFGPEEAWRLALSTFERINRKDLWERGQREDLVRDTPPGGPSSLGNQSTCLLEVSLVTPRKDPQETYRDYVRRKFRLMEDRNARLGECVNLSHRYTRLLLVKEHSNPMQVQQQLLDTGRGHARTVGHQASPIKIETLFEPDEERPEPPRTVVMQGAAGIGKSMLAHKVMLDWADGKLFQGRFDYLFYINCREMNQSATECSMQDLIFSCWPEPSAPLQELIRVPERLLFIIDGFDELKPSFHDPQGPWCLCWEEKRPTELLLNSLIRKKLLPELSLLITTRPTALEKLHRLLEHPRHVEILGFSEAERKEYFYKYFHNAEQAGQVFNYVRDNEPLFTMCFVPLVCWVVCTCLQQQLEGGGLLRQTSRTTTAVYMLYLLSLMQPKPGAPRLQPPPNQRGLCSLAADGLWNQKILFEEQDLRKHGLDGEDVSAFLNMNIFQKDINCERYYSFIHLSFQEFFAAMYYILDEGEGGAGPDQDVTRLLTEYAFSERSFLALTSRFLFGLLNEETRSHLEKSLCWKVSPHIKMDLLQWIQSKAQSDGSTLQQGSLEFFSCLYEIQEEEFIQQALSHFQVIVVSNIASKMEHMVSSFCLKRCRSAQVLHLYGATYSADGEDRARCSAGAHTLLVQLPERTVLLDAYSEHLAAALCTNPNLIELSLYRNALGSRGVKLLCQGLRHPNCKLQNLRLKRCRISSSACEDLSAALIANKNLTRMDLSGNGVGFPGMMLLCEGLRHPQCRLQMIQLRKCQLESGACQEMASVLGTNPHLVELDLTGNALEDLGLRLLCQGLRHPVCRLRTLWLKICRLTAAACDELASTLSVNQSLRELDLSLNELGDLGVLLLCEGLRHPTCKLQTLRLGICRLGSAACEGLSVVLQANHNLRELDLSFNDLGDWGLWLLAEGLQHPACRLQKLWLDSCGLTAKACENLYFTLGINQTLTDLYLTNNALGDTGVRLLCKRLSHPGCKLRVLWLFGMDLNKMTHSRLAALRVTKPYLDIGC | – | increase in IL-1β production | co-localize with CARD-5 |
